Series [1] concerns the target DevR (full-length) (Mycobacterium tuberculosis) (UniProt P9WMF9). The experiment in a line: DNase I footprinting.
Series [2] concerns the target DevRC (DevR C-terminal domain) (Mycobacterium tuberculosis H37Rv) (UniProt P9WMF9). Description: DNase I footprinting.

Chain of DevRC (DevR C-terminal domain) (Mycobacterium tuberculosis H37Rv) (P9WMF9 141-217): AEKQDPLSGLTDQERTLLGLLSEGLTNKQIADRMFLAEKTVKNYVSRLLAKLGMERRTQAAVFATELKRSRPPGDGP
Chain of DevR (full-length) (Mycobacterium tuberculosis) (P9WMF9 whole entry, the tested form may be a part): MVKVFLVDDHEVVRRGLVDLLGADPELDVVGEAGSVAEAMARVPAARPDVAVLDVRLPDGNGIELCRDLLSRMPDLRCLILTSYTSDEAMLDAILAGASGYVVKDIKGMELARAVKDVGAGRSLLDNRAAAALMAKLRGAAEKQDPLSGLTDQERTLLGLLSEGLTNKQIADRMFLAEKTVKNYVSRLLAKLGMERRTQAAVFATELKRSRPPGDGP

Consider “TGGCTGCCGGGCCTTTCCCATCAACGGCTGCGGTCATCTATTAAGGATCGCGCGTCGACAGCCGCGGTGGCAGAGCACGAAGGCTCGCCAGCGGAGGACCTTTGGCCCTGCCTCAACGGCTCCTCGCAGCGGAGAGTGGTACTGACGGTTGCAGATAATCCGGATCACCGGGGAAGGCGCTGACCATG (double strand) [tgs1-Rv3131 intergenic DNA (3130F/3131R)]”, for which the binding result in series [1] and in series [2] was “binds” throughout.
